Source: the supplement of paper PMC12042874
± gives the uncertainty stated by the source.

Experiment: amyloid nucleation score (Sup35N fusion, yeast selection) (log enrichment); library NNK1; higher = more nucleation; inactive = no reads after selection
Method in brief: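 In psi-negative yeast, Sup35N fusions carrying peptides of 20 random codons were induced with 100 μM copper sulfate for 24 hours. The cells then grew 7 days at 30°C on medium lacking adenine and uracil, and plasmid inserts from input and output were Illumina-sequenced, excluding sequences with under 100 input reads. Nucleation score is the DiMSum log enrichment of output over input reads, centred on the mode score of non-aggregating sequences.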

Substance | amyloid nucleation score
INRFTICTFHWTGFALNALS | 2.26 ± 0.17
INSTEIPFDPAVKL | -0.908 ± 0.79
INTCCIRCFRQYGNFNKIKT | 0.662 ± 1.1
INVMWRYSFWLEFQT | -0.442 ± 0.4
INYFQDD | -0.727 ± 1.4
INYGMRCYEE | -0.427 ± 1.2
INYHMVNLNVLAMC | 2.17 ± 0.46
IPRGCRFKSRVTVKINSGAG | 1.37 ± 0.9
IPYLN | 1.15 ± 0.54
IQAMGGRMSRAV | -0.073 ± 0.77
IQWGEKNGCGHLGQFMWYDG | 0.193 ± 0.58
IRCLGISRIFLVYRSVPFWI | 0.413 ± 0.57
IRCRQQARTMYNKMEKMGRG | -0.433 ± 0.3
IRDDCTYYVSAE | 0.634 ± 0.23
IRDRMLMCDGKRLNTLLEHI | 0.145 ± 0.49
IRGTTRAFLANQGCDVLYTG | -0.865 ± 0.86
IRIKDTFESWYSLINEDLGH | inactive
IRKIS | -1.13 ± 1.7
IRLIKIPVKFKFVSTMCSGC | -0.1 ± 0.93
IRLKYSGHAILFHETKNKHA | 0.511 ± 0.42
IRPINKYRIVLIWVSFVRGE | 0.718 ± 0.73
IRSFPTV | 0.075 ± 0.47
IRVGGIWRGCCGVDLCYLTI | -0.627 ± 0.61
ISAVGKYESDTVGPSKND | 0.507 ± 1
ISDEIGIAIENKDSLRKGFR | 0.002 ± 0.84

Substance | amyloid nucleation score
ISEVFD | -0.237 ± 0.24
ISGAN | -0.06 ± 0.44
ISGFRKLVMVREVP | -0.606 ± 1.4
ISGGLTGKWVFVLGDWWVMF | -0.206 ± 0.74
ISGTRLVLGLDDSR | 0.069 ± 0.37
ISIQSLRLSSSSWNLTLHCG | 3.25 ± 0.097
ISISLRHECRYKMFEQ | 2.22 ± 0.19
ISKFFYLVW | 0.097 ± 0.52
ISKISPFECGPVVAQ | 1.12 ± 0.73
ISLVLDFGDVYIVS | 6.203 ± 0.048
ISMNF | 0.67 ± 1.1
ISQVIGSRILPRPTEQVA | -1.96 ± 1.3
ISRSASVGRGLGKYESRAVR | 0.353 ± 1.2
ISRSICKREVLQVDR | 0.378 ± 0.51
ISSKLLFSESSPSMSIQTHW | 0.765 ± 0.64
ISSLYLMSFCILFPPRKFVY | -1.09 ± 0.51
ISSRRCVRED | inactive
ISTPKDISSPKSFWNIFFGT | 4.65 ± 0.069
ISVKSW | -0.325 ± 0.98
ITLCVNRLRFRVKLNHQSSF | inactive
ITLKCCMSTRNHMCHR | 3.75 ± 0.066
ITLKF | -0.381 ± 0.43
ITPTYGT | -0.023 ± 0.39
ITRPGKWGRGD | 0.782 ± 0.35
ITSNHSVWGIMLLKLVTGSI | 0.496 ± 0.48

Substance | amyloid nucleation score
IVEDSLRFIANPYTILNR | 0.723 ± 0.55
IVEFASFSVQVNARNDLHLV | 1.73 ± 0.28
IVFRLS | 0.185 ± 0.38
IVGFHGSNFYSDVSVIGQML | inactive
IVIAVMSGSYVSLKSWFLRH | -1.5 ± 1.3
IVLPVCDIITEAVLSCNSPG | 0.318 ± 0.33
IVLWCTWYYNWNWPSALFRM | -0.192 ± 0.78
IVNAKLSWSYPGIIRLCHCE | 0.43 ± 0.28
IVSKFSYQFKSIGINFYFFR | 4.18 ± 0.12
IVSLNGPAKSSAFGKFSGPL | -0.602 ± 0.72
IVSMRL | 0.216 ± 1.4
IVVGRC | 0.144 ± 0.39
IVVLLKNRS | 0.488 ± 0.47
IVVVGD | -1.63 ± 1.3
IWHFASCAYGGVGSKGDPSD | 0.67 ± 0.69
IWLFFFPMSLRFASYWTGLL | -1.1 ± 0.81
IWLKWCNSPLVRLSMGNSSF | 0.206 ± 0.27
IWMLELSGFMKMVQGGHQVG | 3.06 ± 0.14
IWNSVARFRYSSMGFVVSAG | 0.898 ± 0.93
IWPLGNAIK | 1.93 ± 0.51
IWRTLWMWSVGTSTNPVHSL | -0.088 ± 0.49
IWRWPRMESKSGYHSDFNST | -1.32 ± 2.4
IWSGATV | 0.445 ± 0.41
IWVSGWNYVGRVVVEYQRLS | 0.444 ± 1.4
IWVSLDYMKSGNGNFTDSFC | 2.82 ± 0.12

Substance | amyloid nucleation score
IWWFGSILFLRQSWYKIWSC | -0.877 ± 0.39
IWYSDVGPTTN | -1.14 ± 0.56
IYACTYY | 0.184 ± 0.45
IYISYIRRRFVGLFST | -0.938 ± 0.47
IYLNFLPVVPCRFFCIRTWG | inactive
IYLPRNVFRLTWFYLSQSLA | 0.639 ± 1.1
IYNFSKYPVFGKTRALGFNF | -0.395 ± 0.67
IYNLNVISSVCESTRCRQTA | 7.08 ± 0.078
IYNRKTYFMTTSATVVFAVP | 0.696 ± 0.4
IYQKGMVLGATRNGFSRCKG | -0.173 ± 0.3
IYRGSNRLRRIGWEFNVALD | -0.819 ± 0.33
IYTRFFNTV | -0.222 ± 0.36
IYVYQLSFCCKAY | 0.235 ± 0.66
IYYSFVGLVMCYAFPAEVWS | 1.4 ± 0.51
KAIRMLFSVMIVKR | inactive
KCDARVVIFYLVRAGGVNGI | 1.41 ± 0.35
KCHLFKHLL | 1.66 ± 0.6
KCIYTEKEMGLSAFTLRLYI | 6.286 ± 0.058
KCIYVFSYIYTFLNMCWRGH | 3.5 ± 0.1
KCMTIAWIQSSVSAILLLNC | -0.181 ± 1.4
KCRKASMSSPILDLCTRMRC | -1.18 ± 1.9
KDCDMIGDSVYGSKFVTREM | 0.503 ± 0.34
KDQKISVIMFILMRVPLY | 0.546 ± 0.45
KDVFY | -0.294 ± 0.5
KDVVISVGGMSVVLFSSRPH | 4.52 ± 0.091

Substance | amyloid nucleation score
KEDAIIWVYNKSVSMRIFVQ | -0.104 ± 0.46
KEHRPWGCW | inactive
KEKWRMQICAPGKS | -1.24 ± 0.81
KERIFPLTTEAMKLERKA | -0.341 ± 0.57
KFFCCN | 7.776 ± 0.076
KFIVMIE | 0.386 ± 0.22
KFIVWTFWSYLLTATRM | 0.157 ± 0.79
KFLLLSCYIEWRLMSVLAKA | 0.968 ± 0.69
KFNPLLITKFSAWECGLVVG | -1.55 ± 1.9
KFRRW | -0.832 ± 0.56
KFTVVVAVSCRRLPSNICRI | 0.141 ± 0.53
KGDNIPLGAPSREMLTVYRA | -0.146 ± 0.5
KGELLGDWGAIYHWCF | inactive
KGKPYFAEMLHIMSFVWSSD | 1.3 ± 0.6
KGKTVVSEDGEQCHLGCSRT | -0.079 ± 0.33
KGWKTVVHCRDYGQVNNFGS | 2.22 ± 0.14
KGYSSTYGRPSKHYCC | inactive
KHCDYHRWVEITSKRLFIGG | 0.134 ± 0.3
KHDIIESQPQVVHNNRCVWL | inactive
KHQSHFLVV | 0.872 ± 0.45
KIALTLIRRLQFLNDSVKPQ | 1.71 ± 0.17
KIATKGNIF | -0.951 ± 0.53
KIFDMRVESVYWVGRSPSKV | 0.706 ± 0.17
KIIPRRRKSFMLNTFKYPHD | 1.62 ± 0.52
KIPKSVYVLTSIEGSAFNIK | -0.234 ± 1.6

Substance | amyloid nucleation score
KISITSTIVFS | 1.32 ± 0.33
KISYADF | 0.646 ± 1.1
KITIGINS | 0.4 ± 0.33
KIVRSRWFIICACVKLRTRL | 0.427 ± 0.36
KKFVNFWVMSLYLNSDYSP | inactive
KKKRRLSSWYSHPVPSSGLL | 0.488 ± 1
KKNIWPLYSLRVRLYELAIS | -0.965 ± 1.7
KKVINPYFFGCTGCNNTQRK | -0.149 ± 0.31
KLDMGVLPFANWSVDT | -0.032 ± 0.28
KLETYYGAFNFNWFLSLNGD | 5.08 ± 0.061
KLGPVTYLYP | -0.03 ± 0.72
KLHDGFL | -0.96 ± 2.7
KLMLLLSNSMNQRSDYPRFQ | -0.327 ± 0.44
KLREFAVLTLESGSFSVYCW | -1.14 ± 1.2
KLRRDSFVFQVKFHLNKGML | -0.384 ± 0.46
KLRSGCLDYIVIDLWTF | -0.439 ± 0.39
KLTHVNDLLTMVVNVSRAQG | -0.004 ± 1.4
KLYGVSCAPLSEDHCLGKAA | -0.339 ± 0.48
KMECVVRVSGCRDKVDWTAG | 2.53 ± 0.2
KMQPQMTCFS | -0.435 ± 0.53
KMRILWVV | 0.945 ± 0.51
KMTCCSGSINDGYLYCVYNV | 6.56 ± 0.071
KNALWVRTVKNMCVLWDTGF | -1.08 ± 1.4
KNAVSSGRSGKITRR | 0.231 ± 1.4
KNAYHFRG | 0.113 ± 0.97

Substance | amyloid nucleation score
KNFFPFAFVFL | 7.083 ± 0.053
KNVMVFVQDWIVVSCMRVEK | 2.39 ± 0.14
KNYDGCHMSYVGSRGWITSL | 0.215 ± 1.4
KPGTNSYGCVYNHGFMGCTK | -0.245 ± 0.45
KPWLVHMHGSSYNGRADAEV | 0.811 ± 0.61
KQTLLYHSSGSCCWELVSWW | 4.39 ± 0.097
KQYPI | -1.33 ± 2.4
KRFLSYWRFSWGWYIAQACG | -0.68 ± 1.4
KRFSKDLLMAESDLCIGCMM | -0.817 ± 2.4
KRPSMM | -0.18 ± 0.3
KSDSVLAGY | 5.039 ± 0.05
KSGSKCRLRGSDNSNRLSVM | -0.335 ± 1.5
KSMECSFAWLWDSREFIFCH | -1.67 ± 1.4
KSRGRKSSGDFPIRGD | 4.84 ± 0.062
KSTPEYRSKDSMCELHKDMC | inactive
KSTRWQIRSDALDVSERCFS | 1 ± 0.76
KSTTLLVGSRSCGAHLQRLH | 0.462 ± 0.37
KSVVLHWYAYSMLYPLWNLV | 0.511 ± 0.53
KTPLYLPYLYFSIRLMCYWY | -0.47 ± 0.21
KTSVL | -0.616 ± 0.39
KVHKLIDNYMLRSRWY | -0.139 ± 0.9
KVLELYRILYRREHNFWVEV | -0.317 ± 1.6
KVLMTAGFYVVLRALKHRTK | 1.51 ± 0.34
KVNLTSCSY | -0.059 ± 0.42
